The source of these data is the supplement of paper PMC5998384.

The subject of series [1] is HeLa Kyoto. In words: thermal stability score vs G1/S (z-score of summed log2 fold changes over temperatures); higher = more thermally stable than in G1/S.
The test system of series [2] is HeLa Kyoto. In words: solubility change mitosis vs G1/S (difference of NP-40 vs SDS log2 ratios) (log2 ratio difference); higher = more soluble in mitosis.
The test system of series [3] is HeLa Kyoto. In words: solubility in G1/S (NP-40 vs SDS abundance) (log2 ratio); higher = more soluble. As to conditions: cell cycle stage: G1/S.
For series [4], the system named is HeLa Kyoto. In words: melting temperature (median over replicates), in situ; higher = more thermally stable.
[5] abbreviates: cell cycle stage: early G1 (4.5 h after nocodazole release).
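Wherever melting temperature (median over replicates), in situ is given: HeLa Kyoto cells synchronized by double thymidine or nocodazole block, proteins quantified by TMT10plex mass spectrometry, three independent biological replicates.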
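Wherever solubility change mitosis vs G1/S (difference of NP-40 vs SDS log2 ratios) is given: synchronized HeLa Kyoto cells (double thymidine block for G1/S, nocodazole release for mitosis), protein amounts in NP-40 versus SDS lysates quantified by mass spectrometry, three biological replicates.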
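Wherever solubility in G1/S (NP-40 vs SDS abundance) is given: HeLa Kyoto cells arrested at G1/S by double thymidine block, proteins quantified by TMT10plex mass spectrometry in mild NP-40 versus SDS extracts, three biological replicates.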
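Wherever thermal stability score vs G1/S (z-score of summed log2 fold changes over temperatures) is given: synchronized HeLa Kyoto cells, proteins quantified by TMT10plex mass spectrometry, three biological replicates, mitosis taken 0.5 h after nocodazole release, G1/S directly after double thymidine block.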

On to “MAAEVYFGDLELFEPFDHPEESIPKPVHTRFKDDDGDEEDENGVGDAELRERLRQCEETIEQLRAENQELKRKLNILTRPSGILVNDTKLDGPILQILFMNNAISKQYHQEIEEFVSNLVKRFEEQQKNDVEKTSFNLLPQPSSIVLEEDHKVEESCAIKNNKEAFSVVGSVLYFTNFCLDKLGQPLLNENPQLSEGWEIPKYHQVFSHIVSLEGQEIQVKAKRPKPHCFNCGSEEHQMKDCPMPRNAARISEKRKEYMDACGEANNQNFQQRYHAEEVEERFGRFKPGVISEELQDALGVTDKSLPPFIYRMRQLGYPPGWLKEAELENSGLALYDGKDGTDGETEVGEIQQNKSVTYDLSKLVNYPGFNISTPRGIPDEWRIFGSIPMQACQQKDVFANYLTSNFQAPGVKSGNKRSSSHSSPGSPKKQKNESNSAGSPADMELDSDMEVPHGSQSSESFQFQPPLPPDTPPLPRGTPPPVFTPPLPKGTPPLTPSDSPQTRTASGAVDEDALTLEELEEQQRRIWAALEQAESVNSDSDVPVDTPLTGNSVASSPCPNELDLPVPEGKTSEKQTLDEPEVPEIFTKKSEAGHASSPDSEVTSLCQKEKAELAPVNTEGALLDNGSVVPNCDISNGGSQKLFPADTSPSTATKIHSPIPDMSKFATGITPFEFENMAESTGMYLRIRSLLKNSPRNQQKNKKASE [ZCCHC8]”, for which the values for the thermal stability score in the series with HeLa Kyoto [1] (setting [5]) and in the series with HeLa Kyoto [1] (cell cycle stage: mitosis) were 0.273 and 0.547, respectively. Also, the “solubility change mitosis (log2)” value with HeLa Kyoto [2] was -0.117. Moreover, in the series on HeLa Kyoto [3], the “solubility in G1/S (log2)” value amounted to 0.0806. In addition, the melting temperature came out at 51 °C with HeLa Kyoto [4] (cell cycle stage: G1/S) and 52.4 °C in the series with HeLa Kyoto [4] (cell cycle stage: mitosis).

For the sequence “MAAAGGGGGGAAAAGRAYSFKVVLLGEGCVGKTSLVLRYCENKFNDKHITTLQASFLTKKLNIGGKRVNLAIWDTAGQERFHALGPIYYRDSNGAILVYDITDEDSFQKVKNWVKELRKMLGNEICLCIVGNKIDLEKERHVSIQEAESYAESVGAKHYHTSAKQNKGIEELFLDLCKRMIETAQVDERAKGNGSSQPGTARRGVQIIDDEPQAQTSGGGCCSSG [RAB21]”, the thermal stability score is -1.73 in the series on HeLa Kyoto [1] (setting [5]) and -1.92 in the series with HeLa Kyoto [1] (cell cycle stage: mitosis). Also, the “solubility change mitosis (log2)” value in the series with HeLa Kyoto [2] is -0.0826. The “solubility in G1/S (log2)” value in the series with HeLa Kyoto [3] was determined as 0.158. Also, the melting temperature was 60.4 °C with HeLa Kyoto [4] (cell cycle stage: G1/S) and 60.5 °C in the series on HeLa Kyoto [4] (cell cycle stage: mitosis).

“MPPKKQAQAGGSKKAEQKKKEKIIEDKTFGLKNKKGAKQQKFIKAVTHQVKFGQQNPRQVAQSEAEKKLKKDDKKKELQELNELFKPVVAAQKISKGADPKSVVCAFFKQGQCTKGDKCKFSHDLTLERKCEKRSVYIDARDEELEKDTMDNWDEKKLEEVVNKKHGEAEKKKPKTQIVCKHFLEAIENNKYGWFWVCPGGGDICMYRHALPPGFVLKKDKKKEEKEDEISLEDLIERERSALGPNVTKITLESFLAWKKRKRQEKIDKLEQDMERRKADFKAGKALVISGREVFEFRPELVNDDDEEADDTRYTQGTGGDEVDDSVSVNDIDLSLYIPRDVDETGITVASLERFSTYTSDKDENKLSEASGGRAENGERSDLEEDNEREGTENGAIDAVPVDENLFTGEDLDELEEELNTLDLEE [ZC3H15]”: the thermal stability score was 0.581 in the series with HeLa Kyoto [1] (setting [5]) and -2.59 in the series with HeLa Kyoto [1] (cell cycle stage: mitosis). Besides, the “solubility change mitosis (log2)” value in the series with HeLa Kyoto [2] was -0.0422. The “solubility in G1/S (log2)” value with HeLa Kyoto [3] is -0.131. Moreover, the results for the melting temperature in the series with HeLa Kyoto [4] (cell cycle stage: G1/S) and with HeLa Kyoto [4] (cell cycle stage: mitosis) were 54.1 °C and 53.6 °C, respectively.

On to “MEDDAPVIYGLEFQARALTPQTAETDAIRFLVGTQSLKYDNQIHIIDFDDENNIINKNVLLHQAGEIWHISASPADRGVLTTCYNRTSDSKVLTCAAVWRMPKELESGSHESPDDSSSTAQTLELLCHLDNTAHGNMACVVWEPMGDGKKIISLADNHILLWDLQESSSQAVLASSASLEGKGQLKFTSGRWSPHHNCTQVATANDTTLRGWDTRSMSQIYCIENAHGQLVRDLDFNPNKQYYLASCGDDCKVKFWDTRNVTEPVKTLEEHSHWVWNVRYNHSHDQLVLTGSSDSRVILSNMVSISSEPFGHLVDDDDISDQEDHRSEEKSKEPLQDNVIATYEEHEDSVYAVDWSSADPWLFASLSYDGRLVINRVPRALKYHILL [TSSC1]”, for which the thermal stability score with HeLa Kyoto [1] (setting [5]) was -0.291; in the series with HeLa Kyoto [1] (cell cycle stage: mitosis), -0.357. For the same sequence, the “solubility change mitosis (log2)” value in the series on HeLa Kyoto [2] was -0.21. In the series on HeLa Kyoto [3], the “solubility in G1/S (log2)” value came to 0.0334. The melting temperature with HeLa Kyoto [4] (cell cycle stage: G1/S) was 51.9 °C; with HeLa Kyoto [4] (cell cycle stage: mitosis), 52.9 °C.

Regarding “MSGDGATEQAAEYVPEKVKKAEKKLEENPYDLDAWSILIREAQNQPIDKARKTYERLVAQFPSSGRFWKLYIEAEIKAKNYDKVEKLFQRCLMKVLHIDLWKCYLSYVRETKGKLPSYKEKMAQAYDFALDKIGMEIMSYQIWVDYINFLKGVEAVGSYAENQRITAVRRVYQRGCVNPMINIEQLWRDYNKYEEGINIHLAKKMIEDRSRDYMNARRVAKEYETVMKGLDRNAPSVPPQNTPQEAQQVDMWKKYIQWEKSNPLRTEDQTLITKRVMFAYEQCLLVLGHHPDIWYEAAQYLEQSSKLLAEKGDMNNAKLFSDEAANIYERAISTLLKKNMLLYFAYADYEESRMKYEKVHSIYNRLLAIEDIDPTLVYIQYMKFARRAEGIKSGRMIFKKAREDTRTRHHVYVTAALMEYYCSKDKSVAFKIFELGLKKYGDIPEYVLAYIDYLSHLNEDNNTRVLFERVLTSGSLPPEKSGEIWARFLAFESNIGDLASILKVEKRRFTAFKEEYEGKETALLVDRYKFMDLYPCSASELKALGYKDVSRAKLAAIIPDPVVAPSIVPVLKDEVDRKPEYPKPDTQQMIPFQPRHLAPPGLHPVPGGVFPVPPAAVVLMKLLPPPICFQGPFVQVDELMEIFRRCKIPNTVEEAVRIITGGAPELAVEGNGPVESNAVLTKAVKRPNEDSDEDEEKGAVVPPVHDIYRARQQKRIR [CSTF3]”, the thermal stability score with HeLa Kyoto [1] (setting [5]) is 0.26; in the series with HeLa Kyoto [1] (cell cycle stage: mitosis) it was -0.413. Further, the “solubility change mitosis (log2)” value with HeLa Kyoto [2] is -0.000668. Further, in the series on HeLa Kyoto [3], the “solubility in G1/S (log2)” value is -0.0695. The melting temperature in the series with HeLa Kyoto [4] (cell cycle stage: G1/S) was determined as 52 °C; with HeLa Kyoto [4] (cell cycle stage: mitosis), 51.9 °C.
